In PMC12329027 (Communications Chemistry, 2025):

Molecular target: the molecule itself
Assay: cryo-EM structure

B1: full-length human αA-crystallin carrying the pathological mutation R116C (natural protein)
chain: MDVTIQHPWFKRTLGPFYPSRLFDQFFGEGLFEYDLLPFLSSTISPYYRQSLFRTVLDSGISEVRSDRDKFVIFLDVKHFSPEDLTVKVQDDFVEIHGKHNERQDDHGYISREFHCRYRLPSNVDQSALSCSLSADGMLTFCGPKIQTGLDATHAERAIPVSREEKPTSAPSS
B1: binds.
